The values below come from paper PMC5388898 (Biomacromolecules, 2017).

This assay addresses epidermal growth factor receptor (EGFR) on A431 cells (Homo sapiens, endogenous on A431 cells, UniProt P00533). In words: flow cytometry on cells.

B1: Fc5^FL-ELP^DB (VHH)
VHH: EVQLQASGGGLVQAGGSLRLSCAASGFKITHYTMGWFRQAPGKEREFVSRITWGGDNTFYSNSVKGRFTISRDNAKNTVYLQMNSLKPEDTADYYCAAGSTSTATPLRVDYWGKGTQVTVSS
Consider B1, for which the binding result is listed as “no binding (tested: 1 μM)”.
